Reference: patent publication US20180169199A1

Biological target: HLA-A*02:06 molecule (product of HLA-A*02:06 gene) (human)
Assay: flow cytometry, RA2.6 cells, peptide dilution series, BB7.2 staining

Binder	Binding Experiment Data (log Kd)
KLLQDFFNG (modifications not checked) [peptide … (SEQ ID NO: 4)]	-5.27
VLVGGSTRI (modifications not checked) [peptide … (SEQ ID NO: 5)]	-5.07
MVLTKMKEI (modifications not checked) [peptide … (SEQ ID NO: 6)]	-5.53
YGAAVQAAI (modifications not checked) [peptide … (SEQ ID NO: 7)]	-5.37
LLLDVAPLS (modifications not checked) [peptide … (SEQ ID NO: 8)]	-6.17
AMTKDNNLL (modifications not checked) [peptide … (SEQ ID NO: 9)]	-4.28
ITRARFEEL (modifications not checked) [peptide … (SEQ ID NO: 10)]	-5.58
NLLGRFELS (modifications not checked) [peptide … (SEQ ID NO: 11)]	-5.18
AQIHDLVLV (modifications not checked) [peptide … (SEQ ID NO: 12)]	-6.45
YAFNMKSAV (modifications not checked) [peptide … (SEQ ID NO: 13)]	-5.02
NQPGVLIQV (modifications not checked) [peptide … (SEQ ID NO: 14)]	-6.42
SVTNAVITV (modifications not checked) [peptide … (SEQ ID NO: 15)]	-5.59

Biological target: HLA-A*24:02 molecule (product of HLA-A*24:02 gene) (human)
Assay: flow cytometry, acid-stripped C1R-A24 cells + β2m, peptide dilution series, 17A12 staining

Binder	Binding Experiment Data (log Kd)
VLVGGSTRI (modifications not checked) [peptide … (SEQ ID NO: 5)]	-6.17
MVLTKMKEI (modifications not checked) [peptide … (SEQ ID NO: 6)]	-5.82
YGAAVQAAI (modifications not checked) [peptide … (SEQ ID NO: 7)]	-5.5
AMTKDNNLL (modifications not checked) [peptide … (SEQ ID NO: 9)]	-5.49
ITRARFEEL (modifications not checked) [peptide … (SEQ ID NO: 10)]	-5.21
TFDVSILTI (modifications not checked) [peptide … (SEQ ID NO: 2)]	-6.24
SVTNAVITV (modifications not checked) [peptide … (SEQ ID NO: 15)]	-4.37
FYPEEISSM (modifications not checked) [peptide … (SEQ ID NO: 3)]	-7.66

Biological target: HLA-A*02:01 molecule (product of HLA-A*02:01 gene) (human)
Assay: flow cytometry, T2 cells + β2m, peptide dilution series, BB7.2 staining

Binder	Binding Experiment Data (log Kd)
KLLQDFFNG (modifications not checked) [peptide … (SEQ ID NO: 4)]	-4.96
VLVGGSTRI (modifications not checked) [peptide … (SEQ ID NO: 5)]	-4.86
MVLTKMKEI (modifications not checked) [peptide … (SEQ ID NO: 6)]	-4.59
YGAAVQAAI (modifications not checked) [peptide … (SEQ ID NO: 7)]	-4.9
LLLDVAPLS (modifications not checked) [peptide … (SEQ ID NO: 8)]	-6.06
AMTKDNNLL (modifications not checked) [peptide … (SEQ ID NO: 9)]	-5.56
ITRARFEEL (modifications not checked) [peptide … (SEQ ID NO: 10)]	-4.33
NLLGRFELS (modifications not checked) [peptide … (SEQ ID NO: 11)]	-4.56
AQIHDLVLV (modifications not checked) [peptide … (SEQ ID NO: 12)]	-6.15
YAFNMKSAV (modifications not checked) [peptide … (SEQ ID NO: 13)]	-5.09
NQPGVLIQV (modifications not checked) [peptide … (SEQ ID NO: 14)]	-5.91
SVTNAVITV (modifications not checked) [peptide … (SEQ ID NO: 15)]	-4.76
